Experiment [1] addresses tissue factor (TF) antigen (UniProt P13726). Nature of the experiment: SPR as for KD; reference: wild-type D3H44 Fab; batch C (+); Set # read as 9787.
Experiment [2] shares this target. Nature of the experiment: SPR as for KD; reference: wild-type D3H44 Fab; batch C (+).
For experiment [3] the target is unchanged. Nature of the experiment: SPR, ProteOn XPR36; His-tagged Fab captured on anti-penta-His, TF injected; 1:1 fit; batch C (+).
The target is the same in experiment [4]. The experiment is described as follows: SPR, ProteOn XPR36; His-tagged Fab captured on anti-penta-His, TF injected; 1:1 fit; batch C (+); Set # read as 9787.

The term Kd denotes the equilibrium constant for the complex coming apart. Read a high Kd as a looser complex.

tissue factor (TF) antigen, sequence (P13726 33-251 limits assumed): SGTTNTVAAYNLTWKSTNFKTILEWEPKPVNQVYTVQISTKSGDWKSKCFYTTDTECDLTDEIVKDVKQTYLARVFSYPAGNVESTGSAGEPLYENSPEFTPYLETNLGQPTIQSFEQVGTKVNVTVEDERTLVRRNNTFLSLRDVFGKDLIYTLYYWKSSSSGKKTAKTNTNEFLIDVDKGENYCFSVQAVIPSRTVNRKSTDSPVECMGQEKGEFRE

Consider “D3H44 Fab heterodimer, H1L1 of LCCA Sets # 9794, 9796, 9797, 9792, 9789 and 9787 (H1 Q179K; L1 Q124E_T180E)”, for which the change in median KD compared to wild type, -(log(KD design)-log(KD wt)) in experiment [1] and in experiment [2] was 0.16 throughout. Further, the Kd in experiment [3] and in experiment [4] was 0.11 nM in each case.

These data come from US11306156.
